The values that follow come from the supplement of paper PMC12764529.

± gives the half width of the 95% confidence interval.

The nature of data set [1]: folding stability dG unfold from trypsin proteolysis; higher = more stable. The procedure, abridged: (§1)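 Designed mini-proteins (under 80 residues, no cysteine) in a PA-tagged cDNA display construct were digested with trypsin and chymotrypsin. Each protease was used at 11 concentrations (threefold dilutions) plus a no-protease condition, followed by sequencing. K50 was inferred by Bayesian fitting of sequencing counts, and unfolding free energy was derived against a sequence-predicted unfolded-state K50 and a shared folded-state K50, per protease or combined. Only designs with AlphaFold2 dimer inter-PAE above 15 were kept.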

A short description of data set [2]: folding stability dG unfold from chymotrypsin proteolysis; higher = more stable. The procedure, abridged: as §1
A short description of data set [3]: folding stability dG unfold (combined trypsin and chymotrypsin); higher = more stable. The procedure, abridged:
as §1

For the sequence “SAGGSAGGLKEALKLAEELGAKPHVVKTKGNSEIVFLELKDGRKIRLLVENGKIKEIIPIPETPSAGGSAGG [r6_548_TrMRF]”, the “folding stability dG unfold” value in data set [1] came out at 1.86 ± 0.065 kcal/mol; in data set [2] it was 2.39 ± 0.065 kcal/mol; in data set [3], 2.08 ± 0.17 kcal/mol.

As to “SAGGSAGGLKPGEEWLILFRIDIEIEPMPPNMSPDMAKRFPNMYHIEVKIDILIIPAEDLKELFSAGGSAGG [r6_831_TrROS]”, the “folding stability dG unfold” value in data set [1] turned out to be 3.17 ± 0.13 kcal/mol; in data set [2], 3.74 ± 0.042 kcal/mol; in data set [3], 3.51 ± 0.13 kcal/mol.

Take “SAGGSAGGMARVLRVEPAEGDDTFYVEVEFYDPATGEVTLGRFRIPADRPDLATNIPADSWVVLSAGGSAGG [r6_978_TrMRF]”: the entries for the “folding stability dG unfold” value in data set [1], in data set [2] and in data set [3] were 0.66 ± 0.04 kcal/mol, 1.56 ± 0.059 kcal/mol and 1.25 ± 0.046 kcal/mol, respectively.

“SAGGSAGGMEIRIEKDENGFLRLKVINKKTKKETEIEIPVEDEDALKKLLDAGVERVEIEPLPPSAGGSAGG [r6_639_TrROS_Hall]”: the “folding stability dG unfold” value worked out at 0.399 ± 0.13 kcal/mol in data set [1], 1.34 ± 0.08 kcal/mol in data set [2] and 1.14 ± 0.21 kcal/mol in data set [3].

On to “SAGGSAGGMEKYKVTITIERPDPNNPDVKTTEVTEVVLTPEEIEKLKKELAPTGYRVEITVIDESAGGSAGG [r6_857_JUSTAS]”, for which the “folding stability dG unfold” value in data set [1] worked out at 2.6 ± 0.14 kcal/mol; in data set [2], 2.51 ± 0.086 kcal/mol; in data set [3], 2.45 ± 0.15 kcal/mol.

In the case of “SAGGSAGGMEVPPDQRVLVLDVEGTPEAIEAFAEELVRRGFDKPVAVVAVDPETGKVTIVVPEDSAGGSAGG [r6_652_TrMRF]”, the figures for the “folding stability dG unfold” value in data set [1], in data set [2] and in data set [3] were 0.771 ± 0.05 kcal/mol, 1.06 ± 0.1 kcal/mol and 1.08 ± 0.11 kcal/mol, respectively.

Take “SAGGSAGGMFYVVRLEGPDGPLRTLVRPAESLEEARAFAEALAPEGARVTVEPLEEEEAERLLGSAGGSAGG [r6_267_TrMRF]”: the entries for the “folding stability dG unfold” value in data set [1], in data set [2] and in data set [3] were 1.07 ± 0.057 kcal/mol, 2.54 ± 0.053 kcal/mol and 2.13 ± 0.065 kcal/mol, respectively.

On to “SAGGSAGGMHINAPGSIEELEEKLGGPIAEATLEGPGTFTLTLENGVPITVSFDDPEQLEELIESAGGSAGG [r6_13_TrMRF]”, for which the “folding stability dG unfold” value in data set [1] worked out at 0.524 ± 0.059 kcal/mol; in data set [2] it was 0.243 ± 0.16 kcal/mol; in data set [3], 0.387 ± 0.18 kcal/mol.

Turning to “SAGGSAGGMIEVESFPEIGYILVKAKSEKPEEIAKEVLEKFNVKEAVVFEDPEKPYVYILAKIDSAGGSAGG [r6_661_TrMRF]”, the figures for the “folding stability dG unfold” value in data set [1], in data set [2] and in data set [3] were 0.97 ± 0.088 kcal/mol, 1.26 ± 0.21 kcal/mol and 1.13 ± 0.21 kcal/mol, respectively.

On to “SAGGSAGGMILLETEEGEPKAVILFELRDPLFGGEIPLEFLEELAEEIKEKFPEIKHIELIGLPSAGGSAGG [r6_793_TrMRF]”, for which the “folding stability dG unfold” value stood at 1.47 ± 0.047 kcal/mol in data set [1], 1.1 ± 0.03 kcal/mol in data set [2] and 1.31 ± 0.08 kcal/mol in data set [3].

Turning to “SAGGSAGGMIPVKTTETTTLPDGSTVVTESLTIIDPTSNTSTTTTLKTTIINTSTGTTIPPSSLSAGGSAGG [r6_866_JUSTAS]”, the “folding stability dG unfold” value in data set [1] came out at 1.38 ± 0.032 kcal/mol; in data set [2] it was 0.319 ± 0.073 kcal/mol; in data set [3], 1 ± 0.079 kcal/mol.

As to “SAGGSAGGMIVLPPGATVDFDPSVARLTVTVKDPNSDKSTTTTYDVPPTATVTSAPGTIVVNVPSAGGSAGG [r6_804_JUSTAS]”, the entries for the “folding stability dG unfold” value in data set [1], in data set [2] and in data set [3] were -0.656 ± 0.14 kcal/mol, 0.476 ± 0.11 kcal/mol and 0.171 ± 0.073 kcal/mol, respectively.

Turning to “SAGGSAGGMKEGEEFEIELPDKYKVKIRVKDNIIEVEFPPGLRVRAEILENGEVKVYLPPELKPSAGGSAGG [r6_970_TrMRF]”, the figures for the “folding stability dG unfold” value in data set [1], in data set [2] and in data set [3] were 2.04 ± 0.087 kcal/mol, 1.42 ± 0.048 kcal/mol and 1.7 ± 0.21 kcal/mol, respectively.

Turning to “SAGGSAGGMKIEPIAEDEDYIVVRVEPDLPELLEELGLEVVGVEEEGDYVIVVVKVPPEVREKFSAGGSAGG [r6_108_TrMRF]”, the “folding stability dG unfold” value in data set [1] was 0.649 ± 0.022 kcal/mol; in data set [2], -0.0352 ± 0.11 kcal/mol; in data set [3], 0.336 ± 0.11 kcal/mol.

Take “SAGGSAGGMKIKVKFTITKSDPNSDSPVPRVITKEFESLEEAEKEFNKLKNLPSGYTVEVEIVESAGGSAGG [r7_0_JUSTAS]”: the “folding stability dG unfold” value was found to be 3.16 ± 0.11 kcal/mol in data set [1], 3.82 ± 0.043 kcal/mol in data set [2] and 3.62 ± 0.1 kcal/mol in data set [3].
